Data as given in patent publication US20240301031A1 (JIANGSU HENGRUI PHARMACEUTICALS, published 2024).

What was measured:
[1] = molecular target: BAFF (R&D Systems, 7537-BF) (UniProt Q9Y275 134-285); assay: cell-based or functional assay
[2] = molecular target: T1, human BAFF (10056-HNCH, Sino biological) (human, UniProt Q9Y275 134-285); assay: competition ELISA: biotin-labeled BAFF to coated TACI
T1 construct: Bought protein
Procedure: (§1) A receptor protein was diluted to 2 μg/mL with PBS at pH 7.4 (BasalMedia, B320) and added to a 96-well microplate (Corning, 3590) at 100 μL/well. The plate was incubated at 4° C. overnight. After the liquid was discarded, 200 μL of 1% Casein blocking solution (Thermo, 37528) was added to each well for blocking, and the plate was incubated at 37° C. for 2 h. After the blocking was completed, the blocking solution was discarded, and the plate was washed 3 times with a PBST buffer (PBS at pH 7.4 containing 0.1% tween-20) for later use. A biotin-labeled ligand protein at a fixed concentration was mixed with the antibody or fusion protein diluted in gradient, pre-incubated at 37° C. for 30 min, and added to a blocked microplate. The plate was incubated at 37° C. for 1.5 h. After the incubation was completed, the plate was washed 3 times with PBST. 100 μL of streptavidin-HRP (Invitrogen, 434323, diluted at a ratio of 1:4000) was added to each well, and the plate was incubated at 37° C. for 1 h. The supernatant was removed, and the plate was washed 3 times with PBST. […] The plate was read for absorbance values at 450 nm on a microplate reader, the curves for the inhibition of the binding of the ligands to the receptors were fitted with software, and the IC₅₀ values were calculated. […]

[3] = molecular target: T2, human APRIL (5860-AP-010/CF, R&D Systems) (human, UniProt O75888 115-250, limits assumed); assay: competition ELISA: biotin-labeled APRIL to coated TACI
T2 construct: Bought protein
T2 sequence (looked up): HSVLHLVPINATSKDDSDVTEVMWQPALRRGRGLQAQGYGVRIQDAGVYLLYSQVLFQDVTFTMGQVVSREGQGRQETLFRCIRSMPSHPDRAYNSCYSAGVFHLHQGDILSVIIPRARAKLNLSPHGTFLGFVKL
Procedure: as §1

[4] = molecular target: T3, cynomolgus monkey APRIL (APR-CM410B, Kactus) (cynomolgus monkey); assay: SPR (Biacore), sample captured on Protein A, antigen flowed, 1:1 fit
T3 chain: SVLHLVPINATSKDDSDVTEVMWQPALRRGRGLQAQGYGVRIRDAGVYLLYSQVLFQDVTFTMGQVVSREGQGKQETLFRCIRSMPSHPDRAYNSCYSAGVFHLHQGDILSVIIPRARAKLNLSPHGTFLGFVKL

[5] = molecular target: T2, human APRIL (5860-AP-010/CF, R&D …); assay: as above
[6] = molecular target: T4, mouse BAFF (BAF-M521y, Acro Biosystems) (mouse, UniProt Q9WU72 127-309); assay: as above
T4 construct: Bought protein

[7] = molecular target: T5, mouse APRIL (7907-AP/CF, R&D Systems) (mouse, UniProt Q9D777 96-241, limits assumed); assay: as above
T5 construct: Bought protein
T5 sequence (looked up): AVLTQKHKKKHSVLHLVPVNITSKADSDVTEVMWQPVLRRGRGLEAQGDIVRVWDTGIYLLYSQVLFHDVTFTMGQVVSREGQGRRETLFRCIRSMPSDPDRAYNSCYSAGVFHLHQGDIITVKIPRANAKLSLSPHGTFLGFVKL

[8] = molecular target: T1, human BAFF (10056-HNCH, Sino biological); assay: competition ELISA: BAFF-R coated on the plate, biotin-labelled BAFF at a fixed concentration pre-incubated with the diluted sample, streptavidin-HRP, OD450 (blocked ligand-receptor pair: BAFF/BAFF-R)
Procedure: as §1

B1: RCT-18 (Telitacicept) (Fc fusion)
chain: SRVDQEERFPQGLWTGVAMRSCPEEQYWDPLLGTCMSCKTICNHQSQRTCAAFCRSLSCRKEQGKFYDHLLRDCISCASICGQHPKQCAYFCENKLRSPVNLPPELDKTHTCPPCPAPEAEGAPSVFLFPPKPKDTLMISRTPEVTCVVVDVSHEDPEVKFNWYVDGVEVHNAKTKPREEQYNSTYRVVSVLTVLHQDWLNGKEYKCKVSNKALPSSIEKTISKAKGQPREPQVYTLPPSRDELTKNQVSLTCLVKGFYPSDIAVEWESNGQPENNYKTTPPVLDSDGSFFLYSKLTVDKSRWQQGNVFSCSVMHEALHNHYTQKSLSLSPGK
notes: Positive control; TACI part is positions 13-118 of the extracellular region of human TACI, the rest is Fc
B1 was tested. Which “IC50 (nM) for the inhibition of the BAFF-induced B cell proliferation” value [1] did it give?
Its value is 0.382 nM.

What about the IC50 [2] of the same binder?
Its IC50 is 0.779 nM.

And the IC50 [3]?
Its IC50 is 3.3 nM.

What about the Kd [4] of the same binder?
Its Kd is 0.0436 nM.

And the koff [4]?
The koff was 0.000507 s⁻¹.

What about the kon [4] of the same binder?
The kon was 1.16e+07 M⁻¹ s⁻¹.

And the Kd [5]?
Its Kd is 0.0281 nM.

What about the koff [5] of the same binder?
Its koff is 0.000658 s⁻¹.

What about the kon [5] of the same binder?
Its kon is 2.34e+07 M⁻¹ s⁻¹.

What about the Kd [6] of the same binder?
Its Kd is 0.121 nM.

What about the koff [6] of the same binder?
The koff was 8.98e-05 s⁻¹.

And the kon [6]?
Its kon is 740000 M⁻¹ s⁻¹.

And the Kd [7]?
The Kd was 0.00671 nM.

What about the koff [7] of the same binder?
The koff was 1.69e-05 s⁻¹.

And the kon [7]?
Its kon is 2.52e+06 M⁻¹ s⁻¹.

What about the “IC50 (read off the curve)” value [8] of the same binder?
The value was roughly 3 nM.
